Columns and labels:
[1] = tested on: FAH 5.3 TALEN right (3') (synthetic construct); test: cell_activity; conditions: TALEN pair with HDR oligo (HindIII) in RG-KO pig fibroblasts, 16 bp spacer
[2] = tested on: FAH 5.3 TALEN left (5') (synthetic construct); test: cell_activity; conditions: TALEN pair with HDR oligo (HindIII) in RG-KO pig fibroblasts, 16 bp spacer

Sequence | activity (% of colonies positive) [1] | activity (% of colonies positive) [2]
GGTATGTCCCAGACC (double strand) [FAH 5.3 TALEN 3' half-site] | 5.3 | –
TCAGGGGCAAGGAGACT (double strand) [FAH 5.3 TALEN 5' half-site] | – | 5.3
